Experimental data: patent US20120141376A1, “PROSTATE SPECIFIC TRANSCRIPTS AND THE USE THEREOF FOR PROSTATE CANCER THERAPEUTICS AND DIAGNOSTICS” (priority 2006, published 2012)

B1: No. 3: DATAS fragment; aminoacylase 1; exon extension (nucleic acid, listed as Homo sapiens)
DNA: CCAGGCAGCTGGCGAGGGGGTCACCCTAGAGTTTGCTCAGGTATGGACTTGGGACATGTGATGGGAGAGTGTGGGAGCCGGGGGAGACCCAAGTGTGCAACAGTGGAGTGTGTGCTTGGTGTGTCTGCATATGTCTGGGCATTTCTTTATCTGTGACAGACACATTTTATTCCAACAAGCATTCATTGTAGAGGCCACTGTGGGTGCTGGGGAATGCTGTGGGGAGTAAAATTAGGCACAGTTCATGCCCTTGTATGGTGAAACGGGGAGATATAAATCAAACATTTATGTGATATTACTTTTTTCTGAGAGAATCTCACTCCGTCAC
B2: No. 2: DATAS fragment; melanoma assoc. antigen (mutated) 1; exon extension (nucleic acid, listed as Homo sapiens)
DNA: GGCTCAGGGGGCACGTTTGCGTTTGGACCTGTCTGCGCGTTCTCCTGCGTGGCAGTCCTGATTTCCATACTTCTGGAGAATCCATTTCGTTAACACTGAAAGCCAGTTCTCTTTTCCTGGCAGTTTTTTTCATTTTATTTTTGGCATTTTTTACAAGATACCGTTCGGGAAAGGCTTTTGAAAGGACGGAAGCGTATTCACTGTGCGCCAGTACTCCTGGCTGTGCTGTGGTTTCTCCCGACGTGCACATCGATCTCGTATGTGTGGCATCTGATATTAAACGGGAGGTTTTAAGAAGCGTCTGCCGTGATCATGGAGCTTCGGAAGCGGGAATGGTTCTTCCGGGTTTGCTGTTTTGTCTGTTTCCCCCTTGTGTGGTTTCCGCCTGCGACAGTTCCAGAATTTGCTCTCCCACTCAGTGTGCTCTGCAGCTG
B3: No. 1: DATAS fragment; chromosome 14 open reading frame 122; exon extension (nucleic acid, listed as Homo sapiens)
DNA: CTACCGGGGGAAGGGTCAAAGAGCGTGCCGAAGCGCTGGAGGGAGCTTCACGGACGCGAGCTAGGCACCGGCTCGCCTAATCCGGTACTAATCCGGCTTGCTGCTTCCCGTCCAGGCCTCGCTCGCCATGGGGGAGGTGGAGATCTCGGCCCTGGCCTACGTGAAGATGTGCCTGCATGCTGCCCGGTACCCACACGCCGCAGTCAACGGGCTGTTTTTGGCGCCAGCGCCGCGGTCTGGAGAATGCCTGTGCCTCACCGACTGTGTGCCCCTCTTCCACAGCCACCTGGACCTGTCCGTCATGTTGGAGGTCGCCCTCAACCAGGTGCCTCCGTTGCAT

Columns and labels:
[1] = tested on: PSMA messenger RNA (mRNA); conditions: LNCaP prostate cancer cell line after exposure; cited from earlier work
[2] = tested on: HLA class I (e.g. HLA-A2) expressing adherent 293T cells; test: CTL assay on reverse transfected microarray (caspase activation, fluorescent Z-VAD); type: cell-based, human; conditions: HLA-matched CD8+ T cells from prostate cancer patients incubated 4 hours on array; red fluorescent signal = positive response
Text: Additional patient samples were procured for the cytotoxic T Lymphocyte (CTL) assay. […] (PBMC) were isolated from blood drawn from patients with relevant clinical parameters, and with patient consent. Clinical data generally included patent history, physiopathology, and parameters relating to prostate cancer physiology. PBMCs were collected from 6 prostate cancer patients that met the study requirements. Duplicate samples were obtained from a single patient.
The 192 selected DATAS fragments were PCR amplified out of the library vector and directionally cloned into a eukaryotic expression vector down stream from staggered start site initiation codons. This configuration allows the DATAS fragment to be expressed in all the open reading frames, which is required because the correct reading frame is not always readily apparent.
Plasmid preparations were performed and the expression vectors containing the selcted DATAS fragment clones were re-arrayed into 96 well plates, which were subsequently used to spot glass slides for use in the CTL assay previously disclosed in International Patent Application No. PTC/US2005/032392, the disclosure of which is incorporated by reference in its entirety.
A design file containing the desired microarray positions of the DATAS expression vectors was uploaded into a high resolution scanner. The expression vectors containing the DATAS fragments were mixed with gelatin and lipofectamine and then spotted in duplicate in a pattern that matched the design file uploaded into the high resolution microarray scanner. The following positive controls, negative controls and experimental samples were spotted on the array.
The spotted arrays were then overlaid with HLA class I (e.g. HLA-A2) expressing adherent 293T cells and cultured for 48-72 hours to allow cells time to express vector-encoded transcripts.
The assay for CTL reactivity was then performed by incubating HLA-matched CD8^+ T cells from normal and prostate cancer patients on cultured reverse transfected microarray slides for 4 hours. Prior to incubation with the array, T cells from normals or patients may need to be expanded in vitro, to a small or large extent, to enhance the frequency of responding T cells. An inhibitor of activated caspase, fluorescence-tagged (sulfo-Rhodamine)-Z-VAD, is present throughout the cell incubation to bind caspases that become activated when antigen expressing adherent cells on certain spots are induced to die by the CTL. The slides are then washed to remove unbound fluorescent Z-VAD and 2-color (Green and Red) fluorescence images of the microarray slides are obtained with the microarray scanner.
Analysis and confirmation of data is then determined by visual inspection of the scanned image. The success of the reverse transfection is evaluated by observing green fluorescence at EGFP vector control spots. Then the fluorescence threshold(s) are adjusted on microarray scanner as necessary to establish relevant background and positive control signal intensities. […] Using the coordinate locations for the spots, the cDNAs yielding positive responses are identified.

Molecule	PSMA messenger RNA (mRNA) down-regulated [1]	Patient ID with positive hit [2]
C[C@]12CCC(=O)C[C@@H]1CC[C@@H]1[C@@H]2CC[C@]2(C)[C@@H](O)CC[C@@H]12 [5-alpha-dihydroxytestosterone]	8-10 fold	–
B1	–	MSMPB
B2	–	EYGRT; MSMPB
B3	–	EYGRT
